The results in this text go back to publication PMC3985721.

For orientation: stoichiometry N means the number of molecules, sites or subunits per partner or assembly.

What all share (assay): native MS
In series [1] the target is human soluble guanylate cyclase α subunit catalytic domain, truncated αGC(466–662) (human) (UniProt Q02108).
The target of series [2] is human soluble guanylate cyclase α subunit catalytic domain, αGC(466–690) (human) (UniProt Q02108).
In series [3] the target is human soluble guanylate cyclase β subunit catalytic domain, wild type, βGC(407–626) (UniProt Q02153).
Sequence of UniProt Q02153 (Q02153 whole entry, looked up, the tested form may be a part): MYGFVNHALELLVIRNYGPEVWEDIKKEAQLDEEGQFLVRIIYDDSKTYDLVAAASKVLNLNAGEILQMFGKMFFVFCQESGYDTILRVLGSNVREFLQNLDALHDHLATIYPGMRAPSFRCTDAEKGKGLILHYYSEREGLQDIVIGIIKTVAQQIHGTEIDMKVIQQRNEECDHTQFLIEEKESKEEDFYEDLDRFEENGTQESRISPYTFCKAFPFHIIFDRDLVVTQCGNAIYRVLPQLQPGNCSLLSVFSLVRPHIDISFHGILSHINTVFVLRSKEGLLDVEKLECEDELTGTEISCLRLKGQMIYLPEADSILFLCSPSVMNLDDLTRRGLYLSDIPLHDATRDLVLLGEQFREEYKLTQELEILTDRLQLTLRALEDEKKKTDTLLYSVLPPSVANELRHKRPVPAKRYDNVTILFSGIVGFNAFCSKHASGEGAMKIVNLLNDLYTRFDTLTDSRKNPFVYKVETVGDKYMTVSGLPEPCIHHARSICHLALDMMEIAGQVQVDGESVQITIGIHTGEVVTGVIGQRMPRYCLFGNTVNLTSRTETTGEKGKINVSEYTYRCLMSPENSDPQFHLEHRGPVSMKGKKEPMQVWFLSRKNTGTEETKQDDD

In series [1], “human soluble guanylate cyclase α subunit catalytic domain, truncated αGC(466–662) (from UniProt Q02108 466-662) (domain or fragment)” came in with a stoichiometry N of 2.

Substance “human soluble guanylate cyclase α subunit catalytic domain, αGC(466–690) (from UniProt Q02108 466-690) (domain or fragment)” came in with a stoichiometry N in series [2] of 2. With “human soluble guanylate cyclase α subunit catalytic domain, shorter construct αGC661 (residues 466–661)”, the relative abundance of the heterodimer (%) in series [3] came to 82.5%.
